Measured values: paper doi:10.1101/2024.09.29.615664

Target: reconstituted mononucleosome with unmodified H3K56 (UniProt P68431)
Experiment: pull-down

**Q.** For “MutSβ (MSH2-MSH3 complex), purified (from UniProt P43246;P20585)”, which fold of MSH3 pulled down against the H3K56ac-nucleosome is on record?
**A.** 4 fold
